Measurements reported in article PMC12756002, “Mutations in Hsp40 co-chaperone change the canonical interdomain interactions stimulating LGMDD1 myopathy” (The Journal of Biological Chemistry, 2025).

B3: Ssa1-WT (natural protein)
chain: not shown
notes: Ssa1, yeast Hsp70; Cloned into pPROEx-Htb; cleavage of the tag follows from 'the remaining purification steps were analogous to those for Sis1-WT'; also called Hsp70; source: E. coli Rosetta 2(DE3), purified (Talon resin, steps analogous to Sis1)

What was measured:
Settings in all cases: both partners purified
Ssa1-WT = biological target: B3; assay: ELISA; Ssa1 (200 nM) immobilised in microtiter wells; dilutions of Sis1-WT or mutants (0-50 nM); bound Sis1 detected with an anti-Sis1 antibody; no client
full-length Rnq1 = biological target: T1, full-length Rnq1 (yeast, UniProt P25367 1-405); assay: ELISA; denatured substrate (FL Rnq1 or ΔN Rnq1 400 ng, luciferase 100 ng) immobilised in microtiter wells; dilutions of Sis1-WT or mutants (0-20 or 0-25 nM) in PBS-T with 0.5% BSA, overnight at room temperature; retained Sis1 detected with an anti-Sis1 antibody
T1 construct: also called FL Rnq1; Rnq1-WT
T1 sequence (looked up): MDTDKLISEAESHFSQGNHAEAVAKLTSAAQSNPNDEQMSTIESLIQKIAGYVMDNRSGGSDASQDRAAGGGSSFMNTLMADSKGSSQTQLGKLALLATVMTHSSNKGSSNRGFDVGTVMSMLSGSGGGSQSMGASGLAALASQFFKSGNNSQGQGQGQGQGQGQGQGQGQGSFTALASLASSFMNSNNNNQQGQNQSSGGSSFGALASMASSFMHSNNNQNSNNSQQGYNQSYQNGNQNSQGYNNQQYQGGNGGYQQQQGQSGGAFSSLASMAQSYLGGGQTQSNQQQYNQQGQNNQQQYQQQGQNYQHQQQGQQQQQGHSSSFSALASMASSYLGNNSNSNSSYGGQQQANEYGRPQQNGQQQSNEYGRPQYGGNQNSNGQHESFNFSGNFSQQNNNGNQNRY

[1] = biological target: T2, Sis1-FLRnq1 complex (Sis1-WT premixed with denatured Rnq1) (yeast, UniProt P25294 1-352; P25367 1-405); assay: ELISA; denatured Rnq1 premixed with Sis1-WT or mutants (5 nM), 1 h room temperature, adsorbed onto wells; dilutions of Ssa1-WT (0-20 nM); bound Ssa1 detected with an anti-Ssa1 (Hsp70) antibody
T2 construct: also called Sis1-WT with client protein Rnq1
T2 sequence (looked up) 1: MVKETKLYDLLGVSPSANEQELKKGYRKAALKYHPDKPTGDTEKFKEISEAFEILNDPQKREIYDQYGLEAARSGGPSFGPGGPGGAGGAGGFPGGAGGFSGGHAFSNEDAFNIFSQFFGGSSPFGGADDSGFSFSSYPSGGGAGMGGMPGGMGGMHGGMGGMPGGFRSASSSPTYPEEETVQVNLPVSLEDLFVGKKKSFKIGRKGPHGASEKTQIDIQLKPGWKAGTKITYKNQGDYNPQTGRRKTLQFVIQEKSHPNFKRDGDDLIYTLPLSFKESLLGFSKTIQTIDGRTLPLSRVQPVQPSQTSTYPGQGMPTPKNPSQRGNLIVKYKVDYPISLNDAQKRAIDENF
T2 sequence (looked up) 2: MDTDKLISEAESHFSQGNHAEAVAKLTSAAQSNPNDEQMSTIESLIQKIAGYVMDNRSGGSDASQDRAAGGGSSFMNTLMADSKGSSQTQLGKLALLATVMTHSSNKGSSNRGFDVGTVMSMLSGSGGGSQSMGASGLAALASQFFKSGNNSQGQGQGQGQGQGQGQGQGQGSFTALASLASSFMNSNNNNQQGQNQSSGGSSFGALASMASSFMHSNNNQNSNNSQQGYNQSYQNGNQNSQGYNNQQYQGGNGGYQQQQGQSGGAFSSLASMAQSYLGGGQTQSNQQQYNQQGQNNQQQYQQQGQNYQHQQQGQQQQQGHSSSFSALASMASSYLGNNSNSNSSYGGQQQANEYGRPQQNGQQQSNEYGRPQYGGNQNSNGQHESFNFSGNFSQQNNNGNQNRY

[2] = biological target: T3, Sis1-S49V premixed with denatured Rnq1 (yeast, UniProt P25294 1-352; P25367 1-405, S49V); assay: as above
T3 construct: also called Sis1-FLRnq1 complex (S49V)
T3 sequence (looked up) 1: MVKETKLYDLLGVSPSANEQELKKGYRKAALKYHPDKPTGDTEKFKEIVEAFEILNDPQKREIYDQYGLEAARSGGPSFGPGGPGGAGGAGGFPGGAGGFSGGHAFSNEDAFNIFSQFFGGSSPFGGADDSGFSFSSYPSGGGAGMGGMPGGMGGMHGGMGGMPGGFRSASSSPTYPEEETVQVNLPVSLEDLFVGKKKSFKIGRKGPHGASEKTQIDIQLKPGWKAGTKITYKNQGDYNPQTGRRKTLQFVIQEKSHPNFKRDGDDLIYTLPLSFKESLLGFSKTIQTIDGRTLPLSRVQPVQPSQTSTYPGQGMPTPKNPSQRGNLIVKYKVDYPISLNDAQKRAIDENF
T3 sequence (looked up) 2: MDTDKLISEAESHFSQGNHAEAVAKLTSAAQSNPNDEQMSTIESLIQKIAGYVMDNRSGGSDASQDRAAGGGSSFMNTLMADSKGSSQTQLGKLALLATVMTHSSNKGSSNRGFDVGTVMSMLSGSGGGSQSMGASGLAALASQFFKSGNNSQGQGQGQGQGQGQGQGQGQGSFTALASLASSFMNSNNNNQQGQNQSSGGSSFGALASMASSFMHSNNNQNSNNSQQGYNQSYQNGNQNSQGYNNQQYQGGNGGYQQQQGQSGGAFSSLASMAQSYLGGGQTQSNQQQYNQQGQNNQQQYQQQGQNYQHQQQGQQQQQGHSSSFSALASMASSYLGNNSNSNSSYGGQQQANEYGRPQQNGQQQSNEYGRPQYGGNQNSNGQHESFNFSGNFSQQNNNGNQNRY

[3] = biological target: T4, Sis1-E53A premixed with denatured Rnq1 (yeast, UniProt P25294 1-352; P25367 1-405, E53A); assay: as above
T4 construct: also called Sis1-FLRnq1 complex (E53A)
T4 sequence (looked up) 1: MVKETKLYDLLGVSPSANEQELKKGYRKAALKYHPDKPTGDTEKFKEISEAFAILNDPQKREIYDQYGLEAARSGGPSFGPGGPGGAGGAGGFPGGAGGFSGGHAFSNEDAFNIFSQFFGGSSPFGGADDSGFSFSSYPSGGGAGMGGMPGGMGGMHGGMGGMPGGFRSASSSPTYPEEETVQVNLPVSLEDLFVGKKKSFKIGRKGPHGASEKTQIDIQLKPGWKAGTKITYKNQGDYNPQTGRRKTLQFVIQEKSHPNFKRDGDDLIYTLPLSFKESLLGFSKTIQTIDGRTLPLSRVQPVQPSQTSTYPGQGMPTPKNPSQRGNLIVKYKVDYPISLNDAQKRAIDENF
T4 sequence (looked up) 2: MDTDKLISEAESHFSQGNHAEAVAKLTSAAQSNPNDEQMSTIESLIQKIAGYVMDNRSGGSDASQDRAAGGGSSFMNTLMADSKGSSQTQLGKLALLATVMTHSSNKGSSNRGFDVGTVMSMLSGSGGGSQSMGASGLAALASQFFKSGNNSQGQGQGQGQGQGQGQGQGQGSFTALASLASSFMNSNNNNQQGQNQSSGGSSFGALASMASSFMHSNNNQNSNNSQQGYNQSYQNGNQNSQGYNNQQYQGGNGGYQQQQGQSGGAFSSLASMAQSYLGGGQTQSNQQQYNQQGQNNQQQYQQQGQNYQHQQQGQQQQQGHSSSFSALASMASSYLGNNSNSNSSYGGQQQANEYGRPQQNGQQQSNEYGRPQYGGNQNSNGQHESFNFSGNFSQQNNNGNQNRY

[4] = biological target: T5, Sis1-E53K premixed with denatured Rnq1 (yeast, UniProt P25294 1-352; P25367 1-405, E53K); assay: as above
T5 construct: also called Sis1-FLRnq1 complex (E53K)
T5 sequence (looked up) 1: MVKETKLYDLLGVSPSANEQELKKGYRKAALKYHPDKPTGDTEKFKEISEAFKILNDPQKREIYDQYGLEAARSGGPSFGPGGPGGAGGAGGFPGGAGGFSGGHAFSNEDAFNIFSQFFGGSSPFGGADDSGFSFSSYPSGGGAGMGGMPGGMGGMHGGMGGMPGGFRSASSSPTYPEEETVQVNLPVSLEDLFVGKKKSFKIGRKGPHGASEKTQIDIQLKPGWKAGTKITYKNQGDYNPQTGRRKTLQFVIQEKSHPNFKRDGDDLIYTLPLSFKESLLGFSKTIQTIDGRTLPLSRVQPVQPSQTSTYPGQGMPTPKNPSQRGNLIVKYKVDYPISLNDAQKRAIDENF
T5 sequence (looked up) 2: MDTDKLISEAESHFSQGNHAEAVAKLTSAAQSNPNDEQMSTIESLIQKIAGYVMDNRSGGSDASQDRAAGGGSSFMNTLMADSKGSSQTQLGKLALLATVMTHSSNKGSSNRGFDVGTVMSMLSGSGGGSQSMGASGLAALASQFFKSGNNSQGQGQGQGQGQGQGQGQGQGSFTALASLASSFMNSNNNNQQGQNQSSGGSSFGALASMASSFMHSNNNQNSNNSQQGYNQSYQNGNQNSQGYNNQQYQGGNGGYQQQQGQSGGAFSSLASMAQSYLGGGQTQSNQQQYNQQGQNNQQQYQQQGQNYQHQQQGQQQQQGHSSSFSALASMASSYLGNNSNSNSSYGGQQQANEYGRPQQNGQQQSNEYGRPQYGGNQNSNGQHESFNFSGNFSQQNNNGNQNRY

[5] = biological target: T6, Sis1-N56L premixed with denatured Rnq1 (yeast, UniProt P25294 1-352; P25367 1-405, N56L); assay: as above
T6 construct: also called Sis1-FLRnq1 complex (N56L)
T6 sequence (looked up) 1: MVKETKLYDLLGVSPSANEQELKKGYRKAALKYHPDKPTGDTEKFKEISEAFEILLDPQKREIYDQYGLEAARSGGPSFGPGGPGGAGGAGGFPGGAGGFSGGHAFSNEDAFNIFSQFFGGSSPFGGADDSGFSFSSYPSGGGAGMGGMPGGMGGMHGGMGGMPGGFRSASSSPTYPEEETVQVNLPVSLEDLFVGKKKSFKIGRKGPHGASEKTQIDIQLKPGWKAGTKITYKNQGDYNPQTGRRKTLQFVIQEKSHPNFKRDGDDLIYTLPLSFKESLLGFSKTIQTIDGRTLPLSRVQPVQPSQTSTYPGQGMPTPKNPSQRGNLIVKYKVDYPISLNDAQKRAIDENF
T6 sequence (looked up) 2: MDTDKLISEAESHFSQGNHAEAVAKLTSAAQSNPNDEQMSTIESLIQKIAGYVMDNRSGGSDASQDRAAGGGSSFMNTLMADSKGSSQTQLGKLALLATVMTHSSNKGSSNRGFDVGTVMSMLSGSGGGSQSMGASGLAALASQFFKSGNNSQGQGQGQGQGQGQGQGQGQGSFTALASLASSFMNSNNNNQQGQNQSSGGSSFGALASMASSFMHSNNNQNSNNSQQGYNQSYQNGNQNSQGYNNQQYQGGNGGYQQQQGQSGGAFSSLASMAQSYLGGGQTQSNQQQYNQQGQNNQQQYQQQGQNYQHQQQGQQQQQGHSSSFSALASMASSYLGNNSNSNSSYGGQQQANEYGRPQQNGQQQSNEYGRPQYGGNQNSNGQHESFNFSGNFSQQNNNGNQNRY

Measured: binding result

Ssa1-WT, sequence (P10591 whole entry): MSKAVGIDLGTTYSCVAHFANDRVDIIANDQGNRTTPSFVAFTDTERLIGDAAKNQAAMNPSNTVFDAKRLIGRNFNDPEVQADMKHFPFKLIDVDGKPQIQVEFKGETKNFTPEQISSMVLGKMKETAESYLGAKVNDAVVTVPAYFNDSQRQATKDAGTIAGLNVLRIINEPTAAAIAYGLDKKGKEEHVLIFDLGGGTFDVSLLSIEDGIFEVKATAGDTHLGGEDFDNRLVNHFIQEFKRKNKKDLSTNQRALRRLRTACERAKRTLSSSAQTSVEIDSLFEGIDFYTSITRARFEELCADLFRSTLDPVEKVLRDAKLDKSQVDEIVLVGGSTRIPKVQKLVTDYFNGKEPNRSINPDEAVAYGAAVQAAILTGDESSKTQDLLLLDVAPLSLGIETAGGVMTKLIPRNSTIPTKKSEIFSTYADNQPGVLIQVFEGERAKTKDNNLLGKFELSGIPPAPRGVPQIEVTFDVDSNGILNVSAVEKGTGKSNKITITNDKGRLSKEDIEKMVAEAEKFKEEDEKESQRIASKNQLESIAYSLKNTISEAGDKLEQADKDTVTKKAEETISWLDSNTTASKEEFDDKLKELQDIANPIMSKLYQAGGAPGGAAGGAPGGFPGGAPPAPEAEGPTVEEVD

B1: Sis1-N56L (natural protein, yeast, UniProt P25294 1-352, looked up)
chain: MVKETKLYDLLGVSPSANEQELKKGYRKAALKYHPDKPTGDTEKFKEISEAFEILLDPQKREIYDQYGLEAARSGGPSFGPGGPGGAGGAGGFPGGAGGFSGGHAFSNEDAFNIFSQFFGGSSPFGGADDSGFSFSSYPSGGGAGMGGMPGGMGGMHGGMGGMPGGFRSASSSPTYPEEETVQVNLPVSLEDLFVGKKKSFKIGRKGPHGASEKTQIDIQLKPGWKAGTKITYKNQGDYNPQTGRRKTLQFVIQEKSHPNFKRDGDDLIYTLPLSFKESLLGFSKTIQTIDGRTLPLSRVQPVQPSQTSTYPGQGMPTPKNPSQRGNLIVKYKVDYPISLNDAQKRAIDENF
notes: Sis1, essential yeast DNAJ (Hsp40) protein, with the J-domain mutation N56L; also called homologous to DNAJB6-S57L; LGMDD1 J-domain mutant; source: E. coli Lemo21(DE3), purified (Talon cobalt resin, TEV cleavage, second Talon pass)
binds: Ssa1-WT | full-length Rnq1

B2: Sis1-S49V (natural protein, yeast, UniProt P25294 1-352, looked up)
chain: MVKETKLYDLLGVSPSANEQELKKGYRKAALKYHPDKPTGDTEKFKEIVEAFEILNDPQKREIYDQYGLEAARSGGPSFGPGGPGGAGGAGGFPGGAGGFSGGHAFSNEDAFNIFSQFFGGSSPFGGADDSGFSFSSYPSGGGAGMGGMPGGMGGMHGGMGGMPGGFRSASSSPTYPEEETVQVNLPVSLEDLFVGKKKSFKIGRKGPHGASEKTQIDIQLKPGWKAGTKITYKNQGDYNPQTGRRKTLQFVIQEKSHPNFKRDGDDLIYTLPLSFKESLLGFSKTIQTIDGRTLPLSRVQPVQPSQTSTYPGQGMPTPKNPSQRGNLIVKYKVDYPISLNDAQKRAIDENF
notes: Sis1, essential yeast DNAJ (Hsp40) protein, with the J-domain mutation S49V; also called homologous to DNAJB6-A50V; LGMDD1 J-domain mutant; source: E. coli Lemo21(DE3), purified (Talon cobalt resin, TEV cleavage, second Talon pass)
binds: Ssa1-WT | full-length Rnq1

B3
not listed: Ssa1-WT | full-length Rnq1
binds: all other assays above
